Experimental data as given in IntAct's records for PubMed 24855951.

Target: dtx_drome dx (UniProt Q23985)
Sequence (Q23985 whole entry): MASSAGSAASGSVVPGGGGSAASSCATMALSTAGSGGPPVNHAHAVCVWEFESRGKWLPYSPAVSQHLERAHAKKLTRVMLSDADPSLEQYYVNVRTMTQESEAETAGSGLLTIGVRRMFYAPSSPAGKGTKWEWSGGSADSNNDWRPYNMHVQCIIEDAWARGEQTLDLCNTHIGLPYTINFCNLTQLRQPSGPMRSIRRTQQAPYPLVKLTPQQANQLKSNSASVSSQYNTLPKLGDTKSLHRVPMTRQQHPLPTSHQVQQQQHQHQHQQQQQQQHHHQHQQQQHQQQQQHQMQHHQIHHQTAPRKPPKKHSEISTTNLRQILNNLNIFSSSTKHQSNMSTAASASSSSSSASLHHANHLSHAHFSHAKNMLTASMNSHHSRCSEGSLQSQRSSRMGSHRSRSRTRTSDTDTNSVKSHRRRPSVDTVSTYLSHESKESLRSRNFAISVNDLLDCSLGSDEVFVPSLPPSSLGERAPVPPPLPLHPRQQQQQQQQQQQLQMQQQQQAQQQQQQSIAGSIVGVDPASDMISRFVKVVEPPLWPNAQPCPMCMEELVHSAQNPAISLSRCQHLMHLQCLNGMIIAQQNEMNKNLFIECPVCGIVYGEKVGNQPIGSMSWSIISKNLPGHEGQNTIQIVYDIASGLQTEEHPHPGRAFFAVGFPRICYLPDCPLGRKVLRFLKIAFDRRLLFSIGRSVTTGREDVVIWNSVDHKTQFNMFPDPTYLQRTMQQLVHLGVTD

effect of a mutation on the interaction: disrupting interaction strength
Substance: Neurogenic locus Notch protein (Drosophila melanogaster (Fruit fly)), P07207 R2027A
